# Legend:
# [1] = biological target: Gc protein in CCHFV-YL16070-infected Vero E6 cells (Crimean-Congo hemorrhagic fever virus, …, strain); assay: western blot; details: one partner purified
# [2] = biological target: T1, sGc-S-tag (Gc ectodomain of CCHFV-YL16070 with an S-tag) (Crimean-Congo hemorrhagic fever virus, …, strain, biotin (labelled for BLI)); assay: BLI; […] (25 ug/mL), […]; PBS with 0.1% BSA and 0.02% Tween-20; association 600 s, dissociation 600 s; Octet-Red 96; details: both partners purified
# T1 construct: not shown: S-tag, N-terminal, kept
Binder,binding result [1],Kd [2]
"Gc8 monoclonal antibody (antibody, V domains shown, also called mAb Gc8; copies: 2 + 2) VH: QVQLQQPGAEVVKPGASVKMSCKASGYTFTSYSMHWVKQTPGQGLEWIGAIYPGNGDTSYNQKFKGKATLTADKSSSTAYMQLSSLTSEDSAGYYCARGDQYYGYFDFWGQGTTLTVSS VL: DIQMTQSPASLSASVGETVTITCRTSENIYSFLAWYQQKQGKSPQRLVSHAKALAEGVPSRFSGSGTGTQFSLKINSLQPEDFGSYYCQHHYGIPLTFGAGTKLELK",binds,0.0834 nM
"Gc13 monoclonal antibody (antibody, V domains shown, also called mAb Gc13; copies: 2 + 2) VH: QVQLQQSGPEVVRPGVSVKISCKGSGYTFTDYATHWVKQSHVKSLEWIGVISTYNGETDCNQKFKGKATMTVDKSSSTAYMELARLTSEDSAIYYCANGYYQAMDYWGQGTSVTVSS VL: DIQMTQTPSSLSASLGDRVTISCRASQDISNYLNWYQQRPDGTLKLLIYYTSRLHSGVPSRFSGSGSGTDYSLTISNLEQEDIATYFCQQGSTLPWTFGGGTKLEIK",binds,0.0324 nM

# Source: article PMC10863865 (PLOS Pathogens, 2024)
